Values of other authors, collected in patent US8765467B2, “Multicellular compositions of pluripotent human embryonic stem cells and cancer cells” (Technion Research and Development Foundation Ltd., priority 2003, dated 2014).

Columns and labels:
tumors = tumors grown in immunocompromised mice; literature (Folkman 2002)
[1] = system: human B-lineage acute lymphoblastic leukemia (B-ALL); details: human B-ALL engrafted within marrow of immunodeficient mice; literature (Eisterer et al 2002)

B1: Endostatin (protein, UniProt P39060 1572-1754, looked up)
Endostatin: HSHRDFQPVLHLVALNSPLSGGMRGIRGADFQCFQQARAVGLAGTFRAFLSSRLQDLYSIVRRADRAAVPIVNLKDELLFPSWEALFSGSEGPLKPGARIFSFDGKDVLRHPTWPQKSVWHGSDPNGRRLTESYCETWRTEAPSATGQASSLLGGRLLGQSAASCHHAYIVLCIENSFMTASK
modifications: Endostatin
notes: antiangiogenic agent cited from the literature
- anti-angiogenic activity (tumors): potent anti-angiogenic agent
- inhibitory effect [1]: did not exhibit any inhibitory effect
